Six molecules from paper PMC9638904, “Structure and mechanism of the type I-G CRISPR effector” (Nucleic Acids Research, 2022) can be followed below.

For data set [1], the target named is T1, Csb2 N-terminal (Cas5-like) domain (Thioalkalivibrio sulfidiphilus HL-EbGr7, UniProt B8GLG2 1-259).
T1 sequence: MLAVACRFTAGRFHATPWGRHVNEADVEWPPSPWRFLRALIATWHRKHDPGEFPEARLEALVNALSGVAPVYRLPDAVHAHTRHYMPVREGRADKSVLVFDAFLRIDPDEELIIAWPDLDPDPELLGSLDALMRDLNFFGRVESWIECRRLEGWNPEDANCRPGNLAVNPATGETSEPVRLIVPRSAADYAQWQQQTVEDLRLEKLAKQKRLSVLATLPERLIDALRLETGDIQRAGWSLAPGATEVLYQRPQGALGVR
The data set can be described thus: fluorescence anisotropy; Anisotropy: 25 nM RNA, 50 mM NaCl, 1 mM DTT, 5 mM MgCl2, 1 mM EDTA, 0.1 U/ul RNase inhibitor, 37 C; EMSA/plasmid: 20 mM Tris-HCl, 50 mM NaCl, 1 mM DTT, 0.1 mg/ml BSA, 5 mM MgCl2, 1 mM EDTA, 37 C (30 min EMSA, 1 h plasmid). The note with it: protein: recombinant, tags: N-terminal His8-TEV, removed.

Data set [2] deals with T2, Csb2 (Thioalkalivibrio sulfidiphilus HL-EbGr7, UniProt B8GLG2 1-516).
T2 sequence: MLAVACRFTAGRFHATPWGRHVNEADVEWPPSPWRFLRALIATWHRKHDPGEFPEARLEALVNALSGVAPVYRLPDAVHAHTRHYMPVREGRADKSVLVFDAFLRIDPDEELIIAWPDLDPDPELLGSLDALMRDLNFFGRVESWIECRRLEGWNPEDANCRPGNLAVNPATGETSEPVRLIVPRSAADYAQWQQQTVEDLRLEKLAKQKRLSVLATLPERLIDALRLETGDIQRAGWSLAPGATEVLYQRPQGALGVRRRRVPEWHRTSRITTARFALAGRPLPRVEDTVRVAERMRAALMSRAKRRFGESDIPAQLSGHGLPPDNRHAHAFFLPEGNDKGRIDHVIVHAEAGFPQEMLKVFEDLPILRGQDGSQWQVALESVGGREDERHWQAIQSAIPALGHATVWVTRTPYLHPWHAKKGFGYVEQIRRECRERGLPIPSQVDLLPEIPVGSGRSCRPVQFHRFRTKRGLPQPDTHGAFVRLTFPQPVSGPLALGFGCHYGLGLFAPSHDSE
As to the kind of experiment: fluorescence anisotropy; 5 mM MgCl2, 1 mM EDTA; Anisotropy: 25 nM RNA, 50 mM NaCl, 1 mM DTT, 5 mM MgCl2, 1 mM EDTA, 0.1 U/ul RNase inhibitor, 37 C; EMSA/plasmid: 20 mM Tris-HCl, 50 mM NaCl, 1 mM DTT, 0.1 mg/ml BSA, 5 mM MgCl2, 1 mM EDTA, 37 C (30 min EMSA, 1 h plasmid). Conditions: protein: recombinant; tags: cloning described in pET-Duet and pEV5HisTEV; His8-TEV tag removed; label: 5'-6-FAM; hairpin.

Data set [3] has as its target T2, Csb2. As to the kind of experiment: fluorescence anisotropy; no appreciable binding; Anisotropy: 25 nM RNA, 50 mM NaCl, 1 mM DTT, 5 mM MgCl2, 1 mM EDTA, 0.1 U/ul RNase inhibitor, 37 C; EMSA/plasmid: 20 mM Tris-HCl, 50 mM NaCl, 1 mM DTT, 0.1 mg/ml BSA, 5 mM MgCl2, 1 mM EDTA, 37 C (30 min EMSA, 1 h plasmid). Conditions: protein: recombinant; tags: cloning described in pET-Duet and pEV5HisTEV; His8-TEV tag removed.

Data set [4] deals with the molecule itself. As to the kind of experiment: cryo-EM structure; SEC-purified complex of Cas7, Cas8g, Csb2 and 72 nt crRNA, 1 mg/ml; Titan Krios 300 kV; multibody refinement for Cas8g (~8 Å).
The target in data set [5] is T3, Csb2;Cas7 (Thioalkalivibrio sulfidiphilus …, UniProt B8GLG2;B8GLG3 1-516;1-316, |).
T3 sequence 1: T2 sequence
T3 sequence 2: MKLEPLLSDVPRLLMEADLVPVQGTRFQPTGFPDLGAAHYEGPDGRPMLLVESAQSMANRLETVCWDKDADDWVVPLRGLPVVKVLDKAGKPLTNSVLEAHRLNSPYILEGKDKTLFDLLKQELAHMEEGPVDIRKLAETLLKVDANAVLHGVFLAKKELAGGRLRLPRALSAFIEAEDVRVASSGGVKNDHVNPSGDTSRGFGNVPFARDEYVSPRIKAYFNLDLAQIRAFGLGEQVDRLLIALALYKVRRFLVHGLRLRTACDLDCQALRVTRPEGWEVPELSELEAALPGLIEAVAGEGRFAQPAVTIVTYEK
As to the kind of experiment: EMSA; 0.8 uM effector; no Cas8g, no Cas3; no apparent shift; Anisotropy: 25 nM RNA, 50 mM NaCl, 1 mM DTT, 5 mM MgCl2, 1 mM EDTA, 0.1 U/ul RNase inhibitor, 37 C; EMSA/plasmid: 20 mM Tris-HCl, 50 mM NaCl, 1 mM DTT, 0.1 mg/ml BSA, 5 mM MgCl2, 1 mM EDTA, 37 C (30 min EMSA, 1 h plasmid). Conditions: protein: recombinant;recombinant, tags: cloning described in pET-Duet and pEV5HisTEV, His8-TEV tag removed;N-terminal His8-TEV, copies: 1;7, label: 32P 5' end on DNA, crRNA / target strand / non-target strand, target strand as printed has 1 nt 5' overhang.

Data set [6] addresses Csb2;Cas7;Cas8g;Cas3 (Thioalkalivibrio sulfidiphilus …, UniProt B8GLG2;B8GLG3;B8GLG4;B8GLG5 1-516;1-316;1-720;1-828, |||). The data set can be described thus: EMSA; 0.8 uM effector; near-complete shift; Anisotropy: 25 nM RNA, 50 mM NaCl, 1 mM DTT, 5 mM MgCl2, 1 mM EDTA, 0.1 U/ul RNase inhibitor, 37 C; EMSA/plasmid: 20 mM Tris-HCl, 50 mM NaCl, 1 mM DTT, 0.1 mg/ml BSA, 5 mM MgCl2, 1 mM EDTA, 37 C (30 min EMSA, 1 h plasmid). The note with it: protein: recombinant;recombinant;recombinant;recombinant; tags: cloning described in pET-Duet and pEV5HisTEV; copies: 1;7;1;1; label: 32P 5' end on DNA; crRNA / target strand / non-target strand; target strand as printed has 1 nt 5' overhang.

Data set [7] addresses T4, Cas3 (Thioalkalivibrio sulfidiphilus HL-EbGr7, UniProt B8GLG5 1-828).
T4 sequence: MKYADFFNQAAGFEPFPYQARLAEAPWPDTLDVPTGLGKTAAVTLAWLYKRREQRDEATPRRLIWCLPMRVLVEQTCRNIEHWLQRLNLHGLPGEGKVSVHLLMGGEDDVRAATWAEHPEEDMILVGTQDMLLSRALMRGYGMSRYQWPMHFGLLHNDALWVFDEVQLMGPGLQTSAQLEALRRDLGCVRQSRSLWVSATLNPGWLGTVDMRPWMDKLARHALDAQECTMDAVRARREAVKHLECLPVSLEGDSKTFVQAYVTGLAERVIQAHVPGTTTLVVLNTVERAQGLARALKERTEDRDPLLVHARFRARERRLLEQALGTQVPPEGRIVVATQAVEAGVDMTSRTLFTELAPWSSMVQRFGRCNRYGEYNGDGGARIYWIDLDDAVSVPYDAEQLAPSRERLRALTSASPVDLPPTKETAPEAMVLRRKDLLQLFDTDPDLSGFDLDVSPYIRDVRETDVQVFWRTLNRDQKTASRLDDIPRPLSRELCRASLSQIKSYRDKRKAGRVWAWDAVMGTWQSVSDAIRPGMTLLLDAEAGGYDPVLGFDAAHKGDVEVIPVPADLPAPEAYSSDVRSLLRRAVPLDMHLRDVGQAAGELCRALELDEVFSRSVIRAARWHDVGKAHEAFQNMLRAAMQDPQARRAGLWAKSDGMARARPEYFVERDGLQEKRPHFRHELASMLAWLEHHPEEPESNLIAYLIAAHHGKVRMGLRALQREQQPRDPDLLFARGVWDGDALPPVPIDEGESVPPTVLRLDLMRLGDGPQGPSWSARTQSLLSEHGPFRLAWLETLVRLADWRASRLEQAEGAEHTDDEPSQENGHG
As to the kind of experiment: EMSA; Cas3 alone; TS- or NTS-labelled; Anisotropy: 25 nM RNA, 50 mM NaCl, 1 mM DTT, 5 mM MgCl2, 1 mM EDTA, 0.1 U/ul RNase inhibitor, 37 C; EMSA/plasmid: 20 mM Tris-HCl, 50 mM NaCl, 1 mM DTT, 0.1 mg/ml BSA, 5 mM MgCl2, 1 mM EDTA, 37 C (30 min EMSA, 1 h plasmid). Conditions: protein: recombinant; tags: N-terminal His8-TEV, removed; label: 32P on TS or NTS (EMSA); 1 nt 5' overhang on strand 1 as printed.

B1: 3' hairpin RNA (28 nt) (structured_RNA)
RNA: GUCAUCCGCGGCAUUUAGCCGCGGCCUC
As to B1, the binding result in data set [1] (label: 5'-6-FAM, hairpin) is listed as “no binding”. For the same molecule, the Kd in data set [2] is 43 nM.

B2: 8 nt 5' handle RNA (ssRNA)
RNA: AUUGAAGC
Take B2: the binding result in data set [3] and in data set [1] was “no binding” each time.

B3: CRISPR repeat RNA (36 nt) (structured_RNA)
RNA: GUCAUCCGCGGCAUUUAGCCGCGGCCUCAUUGAAGC
For the molecule B3, the binding result in data set [1] (label: 5'-6-FAM, hairpin) is recorded as “no binding”. For the same molecule, the Kd in data set [2] came out at 55 nM.

B4: Cas7 (type I-G CRISPR effector subunit, Thioalkalivibrio sulfidiphilus HL-EbGr7) (natural protein, UniProt B8GLG3 1-316, looked up)
chain: T3 sequence 2
notes: synthetic gene, codon-optimised for E. coli; Seven copies stand on the crRNA in the Cascade complex; also called Cas7.1 to Cas7.7 (the seven copies in the complex); source: E. coli C43(DE3), purified (HisTrap, TEV cleavage, gel filtration); not shown: His8, N-terminal, cleaved
For the molecule B4, the “stoichiometry N” value in data set [4] was determined as 7.

B5: Tet crRNA with 80 bp target dsDNA (mixed)
RNA: AUUGAAGCAAGCUGUCCCUGAUGGUCGUCAUCUACCUGCCUGGAGUCAUCCGCGGCAUUUAGCCGCGGCCUC
DNA 1: GCCCGCGTTGCAGGCCATGCTGTCCAGGCAGGTAGATGACGACCATCAGGGACAGCTTCAAGGATCGCTCGCGGCTCTTAC
DNA 2: GTAAGAGCCGCGAGCGATCCTTGAAGCTGTCCCTGATGGTCGTCATCTACCTGCCTGGACAGCATGGCCTGCAACGCGGG
In the case of B5, the binding result in data set [5] was “no binding”; in data set [6] it was “binds”.

B6: 80 bp target dsDNA (no crRNA) (dsDNA)
DNA 1: B5 DNA 1
DNA 2: B5 DNA 2
On to B6, for which, in data set [7], the binding result is “no binding”.
